Test results taken from patent US20180142032A1 (Sanofi, published 2018).

Legend:
[1] = molecular target: T1, human LAMP1 at the cell surface (human, UniProt P11279 29-417); experiment: flow cytometry, HCT116 stable clone
T1 construct: native on tumour cells (PDX, Colo205, SW480, LS174T) or from the cloned CDS NM_005561.3 in HEK293 and HCT116; signal peptide 1-28 left out; also called huLAMP1; full length human LAMP1
T1 sequence: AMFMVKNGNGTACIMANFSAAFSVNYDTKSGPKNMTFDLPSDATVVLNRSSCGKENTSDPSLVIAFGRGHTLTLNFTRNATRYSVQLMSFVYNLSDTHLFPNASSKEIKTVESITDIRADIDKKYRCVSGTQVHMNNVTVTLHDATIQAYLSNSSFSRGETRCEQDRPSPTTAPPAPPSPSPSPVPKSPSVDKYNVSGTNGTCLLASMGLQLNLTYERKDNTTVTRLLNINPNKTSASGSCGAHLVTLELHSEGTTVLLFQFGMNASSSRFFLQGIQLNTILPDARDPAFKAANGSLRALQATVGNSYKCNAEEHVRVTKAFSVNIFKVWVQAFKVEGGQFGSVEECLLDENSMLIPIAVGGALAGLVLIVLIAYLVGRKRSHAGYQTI
Text: HCT116 stable clone was obtained as described above. HEK293 cells were infected by a lentiviral vector allowing stable integration of the human or the cynomolgus LAMP1 CDS in genomic DNA of cells. Individual clones with different densities of cynomolgus LAMP1 cell surface localization were derived from a pool of HEK293 infected cells. Protocol as described in example above. EC₅₀ values were estimated using BIOST@T-SPEED software.

[2] = molecular target: T1, human LAMP1 at the cell surface; experiment: cell-based or functional assay
[3] = molecular target: T1, human LAMP1 at the cell surface; experiment: flow cytometry, HCT116 huLAMP1 clone 8
Description: HCT116 cells were infected by a lentiviral vector allowing stable integration of the human or the cynomolgus LAMP1 CDS in genomic DNA of cells. Individual clones with different densities of human or cynomolgus LAMP1 cell surface localization were derived from a pool of HCT116 infected cells. […] 100 μL/well of goat anti-human IgG conjugated with Alexa488 (Invitrogen; # A11013) was added for 1 h at 4° C. and washed two times with PBS 1% BSA. The antibody binding was evaluated after centrifugation and resuspension of cells in 100 μl fixing solution (paraformaldehyde at 4% in PBS). Samples were read using Galaxy® Flow Cytometry System (Partec). EC50 values were estimated using BIOST@T-SPEED software.

[4] = molecular target: T1, human LAMP1 at the cell surface; experiment: flow cytometry, transiently transfected HEK293 cells
Text: (§1) LAMP1 Coding DNA Sequence, RefSeq NM_005561.3 (SEQ ID NO: 23) was cloned internally. The CDS of Macaca mulatta LAMP1, RefSeq XP_001087801 (SEQ ID NO: 27) was also cloned internally. […] Therefore the secreted LAMP1 used in the following example is referred to cynomolgus monkey. Both CDS were cloned into mammalian expression plasmids under CMV enhancer/promoter and SV40 polyA signals. HEK293 cells (Invitrogen; #K9000-10.) were transiently transfected with human LAMP1 or cynomolgus LAMP1 plasmids using FreeStyle™ MAX 293 Expression System according to the manufacturer's instructions. […] 100 μL/well of goat anti-mouse IgG conjugated with Alexa647 (Invitrogen; # A2135) was added for 45 min at 4° C. and washed three times with PBS 1% BSA. The antibody binding was evaluated after centrifugation and resuspension of cells by adding 200 μl/well PBS 1% BSA and read using Guava® easyCyte™ 8HT Flow Cytometry System. EC50 values were estimated using BIOST@T-SPEED software.

[5] = molecular target: T2, cynomolgus monkey LAMP1 at the cell surface (cynomolgus monkey, UniProt P11279 29-417 (human entry)); experiment: as above
T2 construct: also called cynoLAMP1; cynomolgus LAMP1
T2 chain: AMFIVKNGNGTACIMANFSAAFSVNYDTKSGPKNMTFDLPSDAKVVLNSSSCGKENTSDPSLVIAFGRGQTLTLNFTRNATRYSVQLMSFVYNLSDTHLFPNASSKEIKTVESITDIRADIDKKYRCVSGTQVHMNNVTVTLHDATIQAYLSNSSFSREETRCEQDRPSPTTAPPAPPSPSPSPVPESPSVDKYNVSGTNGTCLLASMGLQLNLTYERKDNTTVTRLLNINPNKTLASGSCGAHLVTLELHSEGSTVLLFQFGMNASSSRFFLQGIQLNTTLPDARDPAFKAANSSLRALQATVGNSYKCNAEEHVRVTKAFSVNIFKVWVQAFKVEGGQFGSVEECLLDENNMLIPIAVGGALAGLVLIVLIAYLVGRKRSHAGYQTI
Text: as §1

[6] = molecular target: T3, cLAMP1::histag (cynomolgus monkey, UniProt P11279 29-380 (human entry)); experiment: ELISA on coated recombinant LAMP1 extracellular domain, detected with anti-mouse IgG-HRP; antibody concentration not given
T3 construct: extracellular domain with C-terminal tag that includes 6 His; also called cynomolgus LAMP1 (27-380); cynomolgus monkey LAMP1 protein
T3 chain: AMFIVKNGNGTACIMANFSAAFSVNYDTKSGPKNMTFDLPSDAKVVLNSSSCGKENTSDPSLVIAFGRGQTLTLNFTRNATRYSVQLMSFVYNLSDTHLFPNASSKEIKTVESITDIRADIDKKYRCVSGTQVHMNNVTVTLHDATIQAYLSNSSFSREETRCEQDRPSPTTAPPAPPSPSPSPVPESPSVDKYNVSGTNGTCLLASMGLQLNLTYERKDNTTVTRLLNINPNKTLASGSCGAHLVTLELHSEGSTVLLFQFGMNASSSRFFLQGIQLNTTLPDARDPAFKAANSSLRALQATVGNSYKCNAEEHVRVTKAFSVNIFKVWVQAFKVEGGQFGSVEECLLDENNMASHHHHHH
Text: The antibody binding was visualized by adding TMB-H₂O₂ buffer and read at a wavelength of 450 nm.

B1: MAb3 (antibody, V domains shown)
VH: QIQLVQSGPELKKPGETVKISCKASGYIFTNYGMNWVKQAPGKGLKWMGWINTYTGESRYADDFKGRFALSLETSASTAYLQINNLENEDMATYFCAREDYYGNSPWFFDVWGAGTTVTVSS
VL: DIQMTQTTSSLSASLGDRVTISCNASQGINKYLNWYQQKPDGTVKLLIYYTSTLHSGVPSRFSGSGSGTDYSLTINNLEPEDIATYYCQQYTKLPFTFGSGTKLEIK
notes: murine monoclonal IgG, kappa, from hybridoma; also called murine MAb3
B1 gave an EC50 [1] of 7.6 nM.

B2: huMAb1_1 (antibody, human IgG1, kappa)
heavy: not shown
light: DIQMTQSPSSLSASVGDRVTITCKASQDIDRYMAWYQDKPGKAPRLLIHDTSTLQSGVPSRFSGSGSGRDYTLTISNLEPEDFATYYCLQYDNLWTFGGGTKVEIKRTVAAPSVFIFPPSDEQLKSGTASVVCLLNNFYPREAKVQWKVDNALQSGNSQESVTEQDSKDSTYSLSSTLTLSKADYEKHKVYACEVTHQGLSSPVTKSFNRGEC
notes: humanized, VH1-huIgG1 and VL1-huCk
With B2 the “ADCP Mean EC50, HCT116 huLAMP1 clone 4, antigen density 20 000” value [2] was 0.73 nM, the “ADCP Mean EC50, HCT116 huLAMP1 clone 5, antigen density 300 000” value [2] was 0.33 nM and the “ADCP Mean EC50, HCT116 huLAMP1 clone 8, antigen density 100 000” value [2] was 0.43 nM. For the same binder, the “ADCP Mean EC50, HCT116 huLAMP1 clone 12, antigen density 2500” value [2] was 0.65 nM and the EC50 [3] was 15 nM.

B3: MAb1 (antibody, mouse IgG2a, kappa)
heavy: QVQLQQSGAELVKPGASVKMSCKASGYIFTNYNIHWVKKSPGQGLEWIGAIYPGNGDAPYSQKFKDKATLTADKSSSTTYMQLSRLTSEDSAVYYCVRANWDVAFAYWGQGTLVSVSAAKTTAPSVYPLAPVCGDTTGSSVTLGCLVKGYFPEPVTLTWNSGSLSSGVHTFPAVLQSDLYTLSSSVTVTSSTWPSQSITCNVAHPASSTKVDKKIEPRGPTIKPCPPCKCPAPNLLGGPSVFIFPPKIKDVLMISLSPIVTCVVVDVSEDDPDVQISWFVNNVEVHTAQTQTHREDYNSTLRVVSALPIQHQDWMSGKEFKCKVNNKDLPAPIERTISKPKGSVRAPQVYVLPPPEEEMTKKQVTLTCMVTDFMPEDIYVEWTNNGKTELNYKNTEPVLDSDGSYFMYSKLRVEKKNWVERNSYSCSVVHEGLHNHHTTKSFSRTPGK
light: DIQMTQSPPSLSASLGGKVTITCKASQDIDRYMAWYQDKPGKGPRLLIHDTSTLQPGIPSRFSGSGSGRDYSFSISNLEPEDIATYYCLQYDNLWTFGGGTKLEIKRADAAPTVSIFPPSSEQLTSGGASVVCFLNNFYPKDINVKWKIDGSERQNGVLNSWTDQDSKDSTYSMSSTLTLTKDEYERHNSYTCEATHKTSTSPIVKSFNRNEC
notes: murine monoclonal IgG, kappa, from hybridoma; also called murine MAb1
B3 was tested, and the EC50 [4] was 14 nM, the EC50 [5] was 44 nM and the binding result [6] was “binds”.
